{
  "source": "paper PMC2983480",
  "origin": "cited, not measured here",
  "target": "Arp2/3 complex (Bos taurus) (UniProt A7MB62)",
  "data": [
    {"substance": "WASp VCA (from UniProt P42768)", "values": [
      {"measurement": "Kd", "result": 900, "unit": "nM"}
    ]}
  ]
}
